According to PMC2688778 (Structure (London, England : 1993), 2009):

How the values were obtained:
Test in all cases: fluorescence anisotropy
[1] = target: T1, RecE564 del858-866 (Escherichia coli K12, UniProt P15032 564-857, del858-866)
T1 sequence: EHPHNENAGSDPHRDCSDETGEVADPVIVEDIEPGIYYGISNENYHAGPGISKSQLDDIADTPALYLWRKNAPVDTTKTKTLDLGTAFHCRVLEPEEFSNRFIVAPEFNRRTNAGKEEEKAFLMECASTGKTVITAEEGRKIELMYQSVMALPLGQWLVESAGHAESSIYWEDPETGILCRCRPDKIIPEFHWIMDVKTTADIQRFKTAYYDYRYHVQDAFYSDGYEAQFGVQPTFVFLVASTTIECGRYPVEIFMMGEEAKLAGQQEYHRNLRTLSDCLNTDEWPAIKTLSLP

[2] = target: T2, RecE606 P658L (Escherichia coli K12, UniProt P15032 606-866, P658L)
T2 sequence: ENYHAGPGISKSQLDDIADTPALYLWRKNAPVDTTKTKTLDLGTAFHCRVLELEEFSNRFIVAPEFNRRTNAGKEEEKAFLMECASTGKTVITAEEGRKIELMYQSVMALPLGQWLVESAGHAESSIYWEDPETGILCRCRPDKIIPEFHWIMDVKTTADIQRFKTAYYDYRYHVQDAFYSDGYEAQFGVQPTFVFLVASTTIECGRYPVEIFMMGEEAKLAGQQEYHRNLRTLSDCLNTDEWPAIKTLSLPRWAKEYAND

[3] = target: T3, RecE564 F665A (Escherichia coli K12, UniProt P15032 564-866, F665A)
T3 sequence: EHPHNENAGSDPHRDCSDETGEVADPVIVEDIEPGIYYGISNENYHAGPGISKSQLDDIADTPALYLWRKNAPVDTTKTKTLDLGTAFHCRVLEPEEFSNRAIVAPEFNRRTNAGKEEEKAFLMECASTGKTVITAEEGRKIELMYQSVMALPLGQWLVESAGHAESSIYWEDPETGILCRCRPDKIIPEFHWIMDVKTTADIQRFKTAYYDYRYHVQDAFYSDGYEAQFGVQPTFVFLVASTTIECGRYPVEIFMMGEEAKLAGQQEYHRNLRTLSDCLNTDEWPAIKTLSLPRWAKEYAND

[4] = target: T4, RecE564 Q781A (Escherichia coli K12, UniProt P15032 564-866, Q781A)
T4 sequence: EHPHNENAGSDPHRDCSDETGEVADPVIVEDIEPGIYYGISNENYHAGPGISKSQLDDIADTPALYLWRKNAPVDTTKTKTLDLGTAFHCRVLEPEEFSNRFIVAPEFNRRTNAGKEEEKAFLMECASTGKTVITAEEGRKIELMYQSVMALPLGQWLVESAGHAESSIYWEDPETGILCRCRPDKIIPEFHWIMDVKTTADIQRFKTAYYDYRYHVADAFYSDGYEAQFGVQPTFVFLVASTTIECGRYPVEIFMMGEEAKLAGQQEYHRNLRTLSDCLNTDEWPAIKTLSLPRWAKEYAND

[5] = target: T5, RecE564 W859A (Escherichia coli K12, UniProt P15032 564-866, W859A)
T5 sequence: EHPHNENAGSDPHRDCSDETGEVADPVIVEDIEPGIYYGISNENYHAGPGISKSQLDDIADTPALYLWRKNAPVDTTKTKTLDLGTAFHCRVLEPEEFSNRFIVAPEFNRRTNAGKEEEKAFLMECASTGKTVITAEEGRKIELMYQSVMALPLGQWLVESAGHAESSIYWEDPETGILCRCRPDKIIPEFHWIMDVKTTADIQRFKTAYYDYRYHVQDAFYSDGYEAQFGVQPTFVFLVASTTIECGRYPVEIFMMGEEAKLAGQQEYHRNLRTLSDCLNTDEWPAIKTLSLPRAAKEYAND

[6] = target: T6, RecE564 R746A (Escherichia coli K12, UniProt P15032 564-866, R746A)
T6 sequence: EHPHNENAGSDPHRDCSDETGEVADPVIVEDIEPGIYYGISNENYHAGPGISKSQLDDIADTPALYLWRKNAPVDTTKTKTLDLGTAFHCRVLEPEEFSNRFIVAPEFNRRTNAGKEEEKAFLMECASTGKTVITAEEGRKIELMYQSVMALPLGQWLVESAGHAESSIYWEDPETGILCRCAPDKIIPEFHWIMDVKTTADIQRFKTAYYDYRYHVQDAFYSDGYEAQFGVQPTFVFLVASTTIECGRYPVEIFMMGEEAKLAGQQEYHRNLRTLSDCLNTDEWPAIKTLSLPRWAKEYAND

[7] = target: T7, RecE564 T675A (Escherichia coli K12, UniProt P15032 564-866, T675A)
T7 sequence: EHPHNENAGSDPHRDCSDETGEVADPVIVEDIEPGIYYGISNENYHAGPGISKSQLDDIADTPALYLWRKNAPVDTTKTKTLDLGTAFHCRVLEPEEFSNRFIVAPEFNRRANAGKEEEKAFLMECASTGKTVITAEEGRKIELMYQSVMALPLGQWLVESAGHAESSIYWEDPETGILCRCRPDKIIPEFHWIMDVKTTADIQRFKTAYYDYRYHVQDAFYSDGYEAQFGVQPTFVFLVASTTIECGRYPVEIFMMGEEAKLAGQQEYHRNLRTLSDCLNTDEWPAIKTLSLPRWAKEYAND

B1: F25 (dsDNA)
DNA 1: TAGAGCTTAATTGCTGAATCTGGTG
DNA 2: CACCAGATTCAGCAATTAAGCTCTA
Kd [1]: 660 ± 80 nM | Kd [2]: 110 ± 20 nM | Kd [3]: 200 ± 20 nM | Kd [4]: 70 ± 20 nM | Kd [5]: 350 ± 20 nM | Kd [6]: 90 ± 10 nM | Kd [7]: 650 ± 30 nM
